According to US20110281365A1 (Stanford University, published 2011):

T1: human FcεRIα protein (alpha chain of the high affinity IgE receptor) (human, UniProt P12319 26-201)
T1 construct: Purified soluble protein used in solution; The embodiments and claims speak of the extracellular region 1-176
T1 sequence (looked up): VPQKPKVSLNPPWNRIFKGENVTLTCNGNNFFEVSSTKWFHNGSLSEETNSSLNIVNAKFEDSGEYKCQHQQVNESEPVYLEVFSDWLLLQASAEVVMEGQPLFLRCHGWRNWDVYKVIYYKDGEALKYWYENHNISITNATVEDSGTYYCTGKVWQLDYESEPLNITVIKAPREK

B1: Alexa Fluor 488-labeled 367C IgE-Fc (human IgE-Fc Cε3-Cε4 C328A/K367C double mutant) (other)
chain: ADPAADSNPRGVSAYLSRPSPFDLFIRKSPTITCLVVDLAPSCGTVNLTWSRASGKPVNHSTRKEEKQRNGTLTVTSTLPVGTRDWIEGETYQCRVTHPHLPRALMRSTTKTSGPRAAPEVYAFATPEWPGSRDKRTLACLIQNFMPEDISVQWLHNEVQLPDARHSTTQPRKTKGSGFFVFSRLEVTRAEWEQKDEFICRAVHEAASPSQTVQRAVSVNPGKAADDDDKRYLDPAFLYKVRMNEDLGKPIPNPLLGLDSTRTGHHHHHH
modifications: Alexa Fluor 488 maleimide dye on Cys 367 (Dorrington and Bennich numbering)
notes: Expressed in insect cells; also called labeled IgE-Fc
B2: unlabeled wild type IgE-Fc (human IgE-Fc Cε3-Cε4) (other)
chain: ADPCADSNPRGVSAYLSRPSPFDLFIRKSPTITCLVVDLAPSKGTVNLTWSRASGKPVNHSTRKEEKQRNGTLTVTSTLPVGTRDWIEGETYQCRVTHPHLPRALMRSTTKTSGPRAAPEVYAFATPEWPGSRDKRTLACLIQNFMPEDISVQWLHNEVQLPDARHSTTQPRKTKGSGFFVFSRLEVTRAEWEQKDEFICRAVHEAASPSQTVQRAVSVNPGK
notes: also called unlabeled IgE-Fc; unlabeled IgE

Tests used:
[1] = biological target: T1, human FcεRIα protein (alpha chain of …); assay: fluorescence quenching receptor binding titration, 96-well plate
Description: Binding buffer conditions were optimized to improve reproducibility of the binding assay in a 96-well plate format.
(§1) Fluorescence Measurement. Samples were monitored by fluorescence using a Synergy 4 Fluorometer (BioTek) in black 96-well Costar fluorescence plates (Corning). […] The read-type for typical measurements was Endpoint. All measurements were recorded in duplicate.

[2] = biological target: T1, human FcεRIα protein (alpha chain of …); assay: fluorescence quenching competition assay; competitor of 488-labeled 367C IgE-Fc for FcεRIα
Description: Initial experiments were conducted with unlabeled IgE-Fc as the competitor.
as §1

Binder | Kd [1] | EC50 [2]
B1 | ~22 nM | 
B2 |  | ~75 nM
